Laboratory results: the RNAGym collection of RNA variant scans (doi:10.1073/pnas.2313332121)

B1: TPR t1 (parent)
chain: GACCAAUCUGCCCUCAGAGCUCGAGAACAUCUUCGGAUGCAGAGGAGGCAGGCUUCGGUGGCGCGAUAGCGCCAACGUCCUCAACCUCCAAUGCAUCCCACCACAUGAUGAUGCCUGAAGAGCCUUGGUUUUUUG

Variants of: B1
Assay: polymerase ribozyme fitness, log enrichment relative to wild type (log ratio); higher = more active; in vitro selection for triplet polymerase activity
How it was run: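 Each subunit of a heterodimeric triplet polymerase ribozyme was mutagenized into a library by PCR, transcribed, and subjected to one round of in vitro selection, run in triplicate. Libraries were annealed with a biotinylated primer, the partner subunit and triplets, incubated frozen at −7 °C, and extended constructs were gel-excised, captured on streptavidin beads and recovered by RT-PCR. Input and output libraries were sequenced on Illumina, keeping genotypes with ≥10 input reads and ≥1 read per output. Fitness is log base 2 of genotype enrichment divided by wild-type enrichment, from inverse-variance-weighted replicate averages.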

Variant | polymerase ribozyme fitness (log ratio)
C49G | -0.312
C49A | -0.241
G48U U54C | -1.22
C49A G71C C98U | -2.91
G48C G110C U116G A119G C123A | -5.26
C49A C72A G110C U112A | -6.75
G48U U87G A90U | -1.49
C49A C64U G117U | -2.9
C49A C73G U106G U130C | -2.23
C49A U78A U129G | -1.45
G48C C49U G71C C102A | -4.66
G48U G57C | -0.412
C49A C79A A119G | -2.87
G48U U87A | -1.44
C49G A68G G117U | -5.87
C49A C104G | -6.42
G48C U133G | -1.8
C49G C53A C94U U116G | -2.47
G48C G71A G110A G120A | -3.66
G48U G71U U81A C124U | -0.483
G48U G69A C85G | -3.42
C49A C124U U132C | 1.03
G48U U59G C80A G120U C123A | -4.73
C49A G71U U92A C123U | -2.65

Variant | polymerase ribozyme fitness (log ratio)
G48U C56A G69U C89A C115A A118U | -1.82
C49G C73G | -1.7
C49G A50C C89U A91C | -2.86
C49A C72A C94A | -0.633
C49A G107U | -4.61
G48U A95U G117U | -3.3
C49G C72A | -0.887
C49A C70A | -1.29
C49A C70G | -4.31
C49A G117C | -3.75
C49A G61A | 0.617
C49G A91U C115A G128C U131A | -6.98
C49G C62A C86A U96A | -3.84
G48U U116C | -1.64
G48U C62A U78G | -1.98
G48C C53A C79G C99A C124A | -7.85
C49A G61U A83C U129C | -0.881
G48C G77A | -1.21
C49A C73A C101G C115A G120A | -2.56
C49A C123A | 0.189
C49A C123G | 0.461
G48C C56A | -1.68
G48C C49G C82U C124A G127C U133C G135U | -0.601
C49A C62A G71U G117A U130C | -1.49

Variant | polymerase ribozyme fitness (log ratio)
C49A C73G | -1.88
C49A C73A | 0.508
G48C C73G G93A | -1.8
C49A G77C | -0.848
G48U C53G C62U C73A U132A | -0.636
C49A A66U A90C | -3.76
G48U G120A C123U | 0.409
C49A G61C G110U U125C | -4.57
C49A A50U C62U C88G C123U | -0.464
G48C G60A C94G C115U | -3.74
G48C C76U C88U | -1.76
C49A C88A G127U | -2.42
G48U A66U C72A U96G U112C | -1.61
C49A G71A | -0.646
C49A U78A G120C | 0.377
C49G A66C C101G | -4.2
G48U G63A | -1.96
G48U G135C | -1.03
G48U G135U | -2.2
C49A U55G U125A G127A | -1.79
G48C C53G | -0.405
C49A G52C C72A U96C | -0.937
G48U C49G U96A | -1.45
C49A G93U U112G | -1.59

Variant | polymerase ribozyme fitness (log ratio)
C49A C86A | -2.07
C49A G61U U87C C98A | -3.8
C49A A68U G69C U112C U130A | -4.19
C49A U59A A74U C114U | -2.86
G48C C101U A105G G120U | -3.67
C49G C62G A75G C79U | -3.47
G48C G57U G69U U92C | -1.31
G48U C62A A91U C123U U125A | -4.09
G48U C86A A91C | -1.98
C49G A84U G110C | -5.43
G48U G122A | -1.27
G48C C123G | 0.677
G48U C62G C104A U106C | -5.05
G48U U59A G69C U116C C124U | -2.23
G48U G65U | -6.34
G48C C104U G135U | -1.53
G48C A103U G120A | -6.04
C49G C56G C88U G120C G127A | -2.45
G48U U106A G128C | -3.74
G48U G52U C102A | -4.14
G48U C62A G127C | -3.44
G48C U55G C79U A84C C85G G93U C124A | 0.322
G48U A84G | 0.021
G48U G60A C85G | -0.64

Variant | polymerase ribozyme fitness (log ratio)
G48U U55G U112A | 0.525
G48C A111C | -0.761
G48C U87G A95C | -3
G48C C53G C64G G65A U109G | -6.8
C49A A50C C86U | -0.434
C49A U55G C70U C86U A95C C101U C123A G135C | -1.71
C49A A90U A91U A111C A119G U130A U131C | -2.85
G48U G58U C72U | 0.601
G48C C101U U109G | -5.98
G48U C62U | -0.185
C49A A50G | -1.27
C49A C56A | -0.845
G48U C49U C73G G120U | 0.0945
C49A G127U | -1.02
C49A A74G U116G | -1.13
C49A C62U C85U C124G | 1.34
G48U C73G | -1.73
C49A C88U C94U C123U U132G G135U | -1.38
G48U C49A C73A C115U U133C | -1.19
G48U C88U G110A | -1.01
G48C C56G C62U U78C | -1.82
C49A G71A C82A G120U | -2.99
C49A C70A C73U U87A | -3.37
G48U G110U U125A | -2.52

Variant | polymerase ribozyme fitness (log ratio)
C49A U132A | -0.997
G48U A50G U92C A108G | -5.83
G48C G71C | -0.845
G48C C49A A50G G52C C53U C86G C94U C114A | -3.63
G48U A50U C89G U106A U116C C124U | -3.34
C49G C73A C85U C89A | -2.43
G48U U134G | -0.783
G48U A91U C104A | -5.89
G48C C73A U112A G120C | -0.954
C49A G61A G110U U125C | -2.14
G48U A90U | -1.38
C49A C80A U112A | -5.57
G48U C98U | -1.96
G48U G71U U96C | -1.48
G48C C62U | -2.91
G48U U130C U133A | -0.9
G48C C64G C124U | -5.87
G48U C123U | 0.57
G48U C97G | -4.5
G48C G52U U55G C76U A100C U125G | -4.57
C49A C104G A111C | -6.5
G48U U132A | -0.856
C49G C80U C85G | -2.11
G48U G58U G60U C82G C123U | 0.461

Variant | polymerase ribozyme fitness (log ratio)
C49G C62U G113U | -4.48
G48U C114G G122A C123G | -3.44
G48C G63A C101U | -0.648
C49G A100C C101U | -1.62
C49G C64G G120U C124A G135U | -7.53
C49G A121C | 0.434
G48C C70U C85U G107U | -6.63
G48U C53G C86U C98A C123G C124A | -5.23
G48U U59A G60U C79U U92G G122A C123A | -5.96
G48U C53U | -2.55
G48U C53G | -1.34
G48C C72U U78C C86A C101A C114U C124U | -4.1
G48C G51U C73U C76A G77A A119G | -6.51
G48U C86A | -0.67
C49A G71A C101A C114A | -4.05
G48U U112C | 0.623
C49G C64G G77U A83U G120U | -7.69
G48U U59A G120U | -0.541
C49A G63U C97G U132A | -6.24
C49A G71U C89A U130C | -2.94
C49A G61A C89G U106G C123U | -3.4
C49A C89U U92C A95G U96A G113A U133A | -3.76
C49G C82U C101G | -2.53
